Experimental findings from paper PMC11784312 (Journal of Virology, 2024) are described below.

Assay [1] addresses SD008 HA expressed from pcDNA 3.1-SD008-HA (Influenza A virus …, UniProt A0A2D0Z8H0, strain). Description: immunostaining of cells or tissue. The following applies: one partner purified.
For assay [2], the target named is T1, hemagglutinin of A/chicken/Guangdong/SD008/2017 (H7N9) (Influenza A virus …, UniProt A0A2D0Z8H0, strain). Description: ELISA. The following applies: both partners purified.
Assay [3] deals with T1, hemagglutinin of …. Description: flow cytometry on cells. The conditions noted are these: one partner purified. On the technique in general: In flow cytometry, cells or beads pass a laser one at a time.

B1: 2D7 neutralizing antibody (antibody, V domains shown)
VH: VQLQESGPGLVKPSQSLSLTCTVTGYSITSDYTWNWIRQFPGNKLEWMGYISYSGSTSYNPSLKSRMSITRDTSKNQFLLQLNSVTTADTATYYCTRDGPYWHIDVWGAGTTVTVSS
VL: DIQMNQSPSSLSASLGDTITITCHASQTINIWLSWYQLKPGNIPKLLIYKASNLHTGVPSRFSGSGSGTGFTLTISSLQPEDIASYYCQQGQSFPYTFGGGTKLEIK
notes: whole murine IgG
As for B1, the binding result in assay [1] and in assay [2] was “binds” throughout.

B2: 1H9 neutralizing antibody (antibody, V domains shown)
VH: VQLQESGPGLVKPSQSLSLTCTVTGYSITSDYTWNWIRQFPGNKLEWMGYITYSDTTSYNPSLKSRISITRDTSKNQFFLQLNSVTTEDTATYYCARSDGWYGFAYWGQGTLVTVSA
VL: DIQMNQSPSSLSASLGDTITITCHASQNINVWLSWYQQKPGNIPKLLIYKAFDLHTGVPSRFSGSGSGTGFTLTISSLQPEDIATYYCQQGQTYPFTFGGGTKLEIK
notes: also called nAb 1H9; source: mouse hybridoma, ascites of BALB/c mice, purified (protein G agarose)
On to B2, for which the binding result in assay [1] and in assay [3] was “binds” in each case.
